experiment: soluble on expression in E. coli; label from the status in PepcDB or PDB records

Row | Sequence | soluble on expression in E. coli
1 | MSLYKVLALDLDGTVLSDDHTIHPQVKDAIRAAQQHCHVLIVTGRHHTAARPYYDELGLTTPIICCNGTYVYDYASETVLEHNAIDKQDALTFIDLAQEFQLKLVMYIKDAMTYSQRSPIAYMQALEKWAQAASLTHPPQIYAIDSFHQTARDSEFVWKFVVEGLPSSVERLLEHPWVNAHFNGERSWSNRIDFAAKGNSKGLRLAQYVAQLGYAANHVMAIGDNHNDISMLRYAGHGVAMANADDTVKSYARSLCSTDNNHAGLAQLIREHIQGEGHHHHHH | soluble
2 | MKKIKKAIIPAAGLGTRFLPATKAMPKEMLPILDKPTIQYIVEEAARAGIEDIIIVTGRHKRAIEDHFDSQKELEMVLKEKGKSELLEKVQYSTELANIFYVRQKEQKGLGHAISSARQFIGNEPFAVLLGDDIVESEVPAVKQLIDVYEETGHSVIGVQEVPEADTHRYGIIDPLTKNGRQYEVKKFVEKPAQGTAPSNLAIMGRYVLTPEIFDYLKTQKEGAGNEIQLTDAIERMNNDNQVYAYDFEGERYDVGEKLGFVKTTIEYALKDDSMREELTRFIKALGL | not soluble
3 | MGSDKIHHHHHHMATSQERLGMNLKKCIQRLRKVANRGPSHKARLENIDEKIVVTGTRGKSGATRWLYEILYGRGRDAFAKITGNRPLVLHDGESHPIERGRRVTLYENEAQLRQYAPVETAIFENQAIGEYTTRTVHQRFTDPDVIFLTNIRSDHLDWLGDTPTQIARSFARTIPDGVTLVVGEQRPTLRAMLKRELEETDVQIRWVLVPKALQNVPGAETILGLNDVLEALGEQPLSDRQIEAYIDEMQVRWTTLADGRVYNAASVNDIDSTEIVRRALDDNDVDTIQPLIYLRPDRRARTASFLSYLDGLYSDDVFEVTHAVGPHAELFDNQASFPVATHDASKSASAVLDAALSPGWPVFIMGNTVADFMRDLEAEIEARRVDSSQGMPEKSTSANEKRAIERPQ | not soluble
4 | MAHHHHHHMGKPKYLKKKQAAAAAGSEDGADKDVSDNTENTNGSPTTTNALGKQSEAAKEEPHSSGAMVSFANPVYRQGVNDILVEKLDISYQGNAILENATLNLVSGHRYGLVGPNGCGKSTLLRVLGCHEIPFPSHVDRYYVSQEVEASDMSALDAVLAVDKEREKLESEMEDLALGDQEDPHVLSRLDDIYKRLDELDADTAAARAGKILFGLGFTKEMQRRPTKAFSGGWRMRISLAQALFINPTVLLLDEPTNHLDIEAVVWLENYLSKFKKTLFMVSHSQDFMNNVCTDICHMHLKKLNCYDGNYDQYCITREEKESNQMKKYQWEQNQIKNMKEYIARFGHGSAKLARQAQSKEKTLAKMTRGGLTDAVVKDSRINFEFPCAGPLPPPMLQFREVSFNYPGRPSLFTNLDLGVNMDSRICLVGPNGAGKTTLTKLMCRELEPTAGYVAKNAHCVMARFHQHFVDQINMDLTPLEWMSQEYPDVTQPPILRSALGRFGVSGKAQMTPMKTLSDGQKSRVVFAWMAYKRPHFMILDEPTNHLDIESIDALADAINNFEGAVVVVSHDLRLLAQVADEIWIVEQGEAKRFNGDIADYKEHVQNEVNRMMQNYAASL | not soluble
5 | MLCQKCQKRVANVQMTQIINNNKTVIYLCEQCAREEGKFNVISPFSINDFFSGFMGFPYMASAPQQNQDVVCETCGMSYEEFKKVGKLGCSNCYKTYGDRLVPLLRRLHGNIQYNGKFPSRAFGSIKISREIEKLKEQLNIAIKNEEYEKAAILRDQIRNLESNQNNM | not soluble
6 | MLIKQTDYFRIYRVINSLLISQNADPASASMYFSTFGAFILQQHYKVKAVPKGGLAAYNLGGTVLLFADHREDGYVTGAGENFHCWVEADGWAIDFMAPAFSEGTDALAVPAKMFQRPLSAMAASINDLGQSGDFFYRSEPEATARRFADWHKQAMIGDMASVAANWFRKSPKQMAASLSVTDRDGKARTVPLTGEMLTGAW | soluble
7 | MAHHHHHHMNLIVHDLDFMKRILLNDERKWGEESAPGEGRTESSHQPKIITIVLNNTLCAHSAKFIANSDVLICADGGANRLYNLCQSLATERGAIDDEGSSLKGEEDKNTALHASHTNERSHHVSGRHTISDLFNMPVEKKEKALKRPTEIVPHIICGDFDSINAHVYSYYKNKSVIFEKCANQENTDLDKCIDVIRGYIRTNDKILILGATGNRFDHTCANISCLYKNASLNSLYLIGENNFLFLLQQGSHIIHVSPDVFCKGCGILPFGGKCTIKTEGLKYNLNDECLSFDTLISSSNEVVQREVKIFNDSPVVWSAQLI | not soluble
8 | MKQRHGNSLLTTDTKCISCRLGVPLSPQRRFQAIRIEEVKLRWFAFLIVLLAGCSSKHDYTNPPWNAKVPVQRAMQWMPISQKAGAAWGVDPQLITAIIAIESGGNPNAVSKSNAIGLMQLKASTSGRDVYRRMGWSGEPTTSELKNPERNISMGAAYLNILETGPLAGIEDPKVLQYALVVSYANGAGALLRTFSSDRKKAISKINDLDADEFLDHVARNHPAPQAPRYIYKLEQALDAM | not soluble
9 | GPGSMRLTSRGSHNSSQVVYLLDTREFITDCSTVRQVTHFAHVHRLGSPLWLSCELASALGLTLRYMCSPLNIWSPLTGESFVQLASSPALARDTLYKFPINKEFLAPGGVLPHNSGEGSLMALSAAASSDGKPRWYNIPKDVSHLFVLPKNLCQLSVPVHRGGFRPRPFNLWVSTVIAVRMGGLAEAVKTVRTPSSFMTLVNADQMYPSALLAEKELECVLLMRKEGRLGEM | not soluble
10 | MVKESGMASLLLENPYYGYRKPKDQLRSSLKNVSDLFVMGGALILESAALLHWLERDGFWPLGMTGISMGGHMASLAVTNWPKPIPLIPCLSWTTASSVFTTGVLSRAVNWRELEKQYATHTVYEEEIISMLEYCGTDSFRMGQEFVKNAPGSFDGLDLTQELLQSGQQVALRSSYSGRPASDQDSSVLMGRRERDGLDQMLSAVSSSAPHLDMLHAKSIACGSGQRQSLQRESLCFMKGVMDECTHIANFSVPVDPSLIIIVQAKEDAYVPRTGVRSLQEIWPGCEVRYLNGGHISAYLFKQGLFRQAIYDAYDRFLHKYSSL | soluble
11 | MNKIALFVDVQNIYYTCREAYQRQFNYRKLWQHLSTQGEIVSAVAYAIHRGDDGQLKFQDALRHIGFELKLKPFIQRSDGSAKGDWDVGITIDVLDAAPNVDTVILLSGDGDFAILLEKITQKYGVKAEVYGVPQLTAKALMDATTQFNPIDDVLLL | soluble
12 | MSLYVDAGLQPLDKNNKKLVQVHIPEGSSNKQIAAVLEESNVIKSGMVFNYYVKFKNLTDFQAGYYQMSPSMTLDEIGEMLKEGGTPEPTKIADGKVTIPEGYDIDKIGEAIEKNTDFKKADFIALMKNEDFFNQMKAKYPDLLESAATAEGVRYRLEGYLFPATYDYYKKATLPEFVEQMIAKMNTVMEQYTPTIHAKNLTNQQVLTLASLVEKEGVKEADRKQIAQVFFNRLAADMPIQSDISILYALGEHKETVTYADLEVDSSYNLYKNTGYGPGPLDSPSEESIKAVLNPTPSDYLYFVADISTGKVYFSKTYEEHQVLVDQYVNNSSSEEGHHHHHH | soluble
13 | MQKWIGIMGIIFILTGCKMSEAPTNLMEAPANEKWINELKEQIDKDLPVNYRLLTPMSNKDKQMIWSMDFKQDNKKEAVIFYKLPNADHSVYLAVYEKNGNGWKTKSTHKFNGGDVDIVEVGDFTGNGKRELLIGISVDRESLKHVMYVFSEENEDMREIYNRNYTKLFIDDLNKNGLKDLSLVTYEKDEKLIVEFIEQFKTLSEASFDPFINSIQRIQMGRISKSLKAIVIDAGVGAHSGITYVAKFDENHYEVLPIDGKEDLFNEYVVESKDVNEDGIIEFVRTVRPKGWEDKPHGDSPLFERYIQWSESGIKPIEERYIDIEKGYYVKIPKELIGKITISDEQKESNSQKFLETSTNETWLEVHIFKRKEWFGIKGYSAAVKTASHVYAVPKQPHFEKVKAYVKPLADYQQE | not soluble
14 | MKASTVLQIAYLVSQESKCCSWKVGAVIEKNGRIISTGYNGSPAGGVNCCDYAAEQGWLLNKPKHAIIQGHKPECVSFGSTDRFVLAKEHRSAHSEWSSKNEIHAELNAILFAAENGSSIEGATMYVTLSPCPDCAKAIAQSGIKKLVYCETYDKNKPGWDDILRNAGIEVFNVPKKNLNKLNWENINEFCGE | soluble
15 | MGSDKIHHHHHHMEKGSIKILGEGFISSGEYENIKIVGSSKSKGNVKSNEVKVLGDAKFEGDINIKNFVVNGKTIIRGNLKAERVRVNGQLNIEGDAEIDDLVITAQQKVDGKLKCNNVTIRGQLSVNENMYAQDIKIYGEMRNKSNIECEDIKVYGVIKCDGLLNGENIYVYSGGGSYCKEIGATNIKIGRSKDAFSLIKIINIFSGKFKCNLIEGDTIELEDASIKDIRGKSISLVDNCDVGNIEYSDNLSVSDNSTVKNSIKVG | not soluble
16 | MVSENSDATNVETTALALKILVAGGFGVGKTTMVGAVSEIRPLRTEELLSEAGQSVDDTDGVDQKVTTTVAMDFGRITIRSGLSLYLFGTPGQDRFWFLWDELSQGALGAVVLADTRRLEDCFPAVDYFEHRHIPFVVAVNCFAGARTYGAHDVSRALDLDQGTPVVLCDARDRDSGKEVLIRLVEYAGRMHTARLLDSVGLEHHHHHH | not soluble
17 | MGSDKIHHHHHHAQTLPFRLSKGAGTFRLGVVCGNESCWLDQCSVKKKGQAYTIKDKLWKEGEIKLIVCPLTDSNGFIMEVSGERLPEEFKLCWAFGACDGADDSAVTDNSIPVASCFHNVFSIEGNAFTTYYGESMKLRTVHGVSPIGSEIRLSDGHKQASPLALFNSGKKTDAPVISALCPWKPQEKLYFCFYQRGDYNYFMLPGLFGKEHKTRSK | not soluble
18 | MMSLREKLIRELRRRGPIGIDQYEIEELMGFSKSTASEALSKLEAEGIIARRQISGRSKRVWLREFIPYRDPEMIRIGCLKSTEYAGFLSAAKDYCENKGIKAVIRFYNDATSILHDLSTGTLEFGLSPIFTETLFALSRHDIVIAGPVASGGSGIFENPASCENIVATSESTSMMLLSREFRRREGDVKITIFSDPIKASDGFRAGDFRYIAIWEPYASVIGANKLYDYSDLMDTFPCCGIAVSSGRSKDADLKSIIDAYRETDVEIRSDVIDMLSKATRCSKRAVMNSLGSYNFKLKYDMQTILRYMDFIGYPASEDAIKKVFLL | soluble
19 | QGMISFTQQNEQEADRIGIQVLQRSGFDPQAMPTFLEKLLDQARYSSRPPEILLTHPLPESRLADARNRANQMRPIVVQSSEDFYLAKVRTLGMYNSGRNQLTSDLLDEWAKGNVRQQRAAQYGRALQAMEANKYDEARKTLQPLLAAEPGNAWYLDLATDIDLGQNKANDAINRLKNARDLRTNPVLQLNLANAYLQGGQPQEAANILNRYTFNNKDDSNGWDLLAQAEAALNNRDQELAARAEGYALAGRLDQAISLLSSASS | not soluble
20 | MGSDKIHHHHHHMRASSHLPQLHGRLDLTFERRRGTTRLVASEQTPPLNVSRVLRTEEVDLATVYLVETSGGVVSGDSQTIAIYVGEGARVELIPQSATKVYPSRKQGESSTQQVWLRVDEGAAAFWKPESIIPFRKASFLQSTRFHLHSSSTFFYGDMLTPGRVHHNERFQYEQVDSLVEIYLDETLVVHDRVHLQPKDQLQTIGRLDGYSYYGAVWMHAPILKGAHLEQWMENGGQNDRFAYTCVAEGLIHVRWLSESSWRLRAALNDLYTAFRTFALKGE | not soluble
21 | GSHMSQPRPLLSPPETEEQLLAQAQQLSGYTLGELAALVGLVTPENLKRDKGWIGVLLEIWLGASAGSKPEQDFAALGVELKTIPVDSLGRPLETTFVCVAPLTGNSGVTWETSHVRHKLKRVLWIPVEGERSIPLAQRRVGSPLLWSPNEEEDRQLREDWEELMDMIVLGQVERITARHGEYLQIRPKAANAKALTEAIGARGERILTLPRGFYLKKNFTSALLARHFLIQ | soluble
22 | MQYFSPEQQYNAWIVSDLVKQIFHKRAGCSPGIHELAVFAEEHFHIDIDFVFSIIMNIGDIEFALTDEIEKKLSGYLSTLLPYVTADMFETSKANAHAFLSRRHGNAAYHLFVSDDAFMRKQLEHHHHHH | soluble

Source: the DeepSol protein solubility set
